Reference: patent US12215133 (BRIGHTGENE BIO MEDICAL TECHNOLOGY, dated 2025)

T1: GIP receptor
T1 sequence (P48546 whole entry, species assumed, looked up): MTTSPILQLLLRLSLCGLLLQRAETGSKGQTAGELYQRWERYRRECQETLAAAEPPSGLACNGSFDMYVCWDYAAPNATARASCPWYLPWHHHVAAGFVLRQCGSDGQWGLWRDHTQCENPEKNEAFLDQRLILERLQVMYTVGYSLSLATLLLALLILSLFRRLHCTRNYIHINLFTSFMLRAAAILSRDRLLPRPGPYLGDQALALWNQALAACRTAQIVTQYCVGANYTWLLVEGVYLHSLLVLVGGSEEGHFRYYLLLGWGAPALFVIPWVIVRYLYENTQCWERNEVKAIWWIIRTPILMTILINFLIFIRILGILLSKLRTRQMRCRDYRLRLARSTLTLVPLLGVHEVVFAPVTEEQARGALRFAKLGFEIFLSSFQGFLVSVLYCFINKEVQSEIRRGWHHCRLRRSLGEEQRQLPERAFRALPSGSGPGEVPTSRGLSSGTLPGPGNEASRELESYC

B1: BG128 (peptide)
peptide: YXEGTFTSDYSIXLDKIAQKAFVQWLIAGGPSSGAPPPSK
modifications: Aib (2-aminoisobutyric acid) at positions 2 and 13; Lys at position 40 carries on its side chain AEEEA-AEEEA-gamma-Glu-icosanedioic acid (Fmoc-AEEEA-OH, Fmoc-AEEEA-OH, Fmoc-Glu-OtBu and 20-(tert-butoxy)-20-oxoicosanoic acid condensed in turn); C-terminal amide (made on Rink MBHA Amide resin)
B2: BGM125 (peptide)
peptide: YXEGTFTSDYSIXLDKIAQKAFVQWLIAGGPSSGAPPPS
modifications: Aib at positions 2 and 13; by the synthesis order the Lys(Alloc) at position 16 carries AEEEA-AEEEA-gamma-Glu-icosanedioic acid on its side chain; C-terminal amide (Rink MBHA Amide resin)

Assays:
GIP receptor = biological target: T1, GIP receptor; test: cell-based or functional assay
GLP-1 receptor = test: cell-based or functional assay

| Binder | cAMP experimental result of GIP receptor, EC50 (GIP receptor) | cAMP experimental result of GLP-1 receptor, EC50 (GLP-1 receptor) |
| --- | --- | --- |
| B1 | 0.279 nM | 0.11 nM |
| B2 | 0.684 nM | 0.0692 nM |
